# According to the RNAGym collection of RNA variant scans (doi:10.1021/acssynbio.7b00057):
# B1: Pistol ribozyme (parent)
# chain: GGGUCGUUGUUCCAUAAUCGCGUGGAUAUGGCACGCAAGUUUCUACCGGGCACCGUAAAUGUCCGACUGGAGCCGUUCGGGCGGCUAUAAACAGACCUCAGGCCCGAAGCGUGGCGGCACCUGCCGCCGGUGGUAAAAAAGAUCGGAAGAGCACACGUCU
# Variants of: B1
# Assay: aptazyme ON/OFF ratio, guanine; higher = stronger switching; co-transcriptional cleavage with and without guanine
row,Variant,aptazyme ON/OFF ratio
1,U7G U8C G9C U10C U11A C12G,1.11
2,U7C U8C G9A U10G C13A,1.27
3,U7C G9C U10A U11C C12A C13G,1.07
4,U7C U8A G9C U10A U11C C12U,1.08
5,U7C G9U U10G C12G C13G,1.12
6,U7C U8G G9C C13G,1.04
7,U8C G9U U10C U11G C12U C13G,1.12
8,U7G U8G G9A U10G C12G C13G,1.16
9,G9A U11G C13U,1.44
10,U8A U10C U11A C12A C13A,1.21
11,U7G G9U U11G C12U C13A,1.31
12,U7C G9A U10C U11G C12U C13A,1.31
13,U8C G9U U10A U11G C12U C13U,1.2
14,U7A G9U U10G U11G C13G,1.17
15,U7C G9U U10C C12A C13A,1.09
16,U7C U8G G9C U10A U11C C12A C13U,1.17
17,U7A U8G U10A U11G C12G C13G,1.43
18,U7C U8A G9C U11G C12G C13U,1.05
19,U8A G9C U10A U11A C12G C13U,1.3
20,U8C G9U U10A U11G C12A C13A,1.14
21,U8C G9A U10C C12A C13U,1.33
22,U7A U8G U11A C12G C13G,1.07
23,U8A U10C C12U C13A,1.22
24,U7A U8A U11G C12G,1.27

row,Variant,aptazyme ON/OFF ratio
1,U7G G9U U10C U11A C12U C13U,1.33
2,U8A G9A U10G U11G C12U C13G,1.26
3,U7G U8C G9A C12G C13U,1.03
4,G9U U11G C12A C13U,1.36
5,U8G G9U U11A C13G,1.06
6,U7A U8C U10G U11A C12G,1.37
7,U7A U8G G9U U10G U11G,1.38
8,U7G G9A U10C U11G C12A C13G,1.1
9,U7C U8C G9C U10C U11A C13U,1.05
10,U7A G9U U10G C12U C13A,1.32
11,U7C U10C,1.92
12,G9U U10G U11G C12G,1.82
13,U8C G9C U10C U11A C13U,1.04
14,U7A U11C C12A C13U,1.19
15,U7G G9A U10G U11A C12U,1.07
16,U7A U8A G9A U11C C12U C13U,1.08
17,U7A G9A U10G U11G C12G,1.38
18,U8G G9C U11G C12A C13A,1.08
19,U8A U10G U11G C13A,1.33
20,U7C U8C G9C U10G C12A C13G,1.06
21,U7G U10A U11G C12U C13G,1.22
22,U7C U8C G9A U10C U11A C12A,1.51
23,U8G G9C U10C U11C C12G C13A,1.11
24,U7G G9U U10C U11G C12A C13A,1.1

row,Variant,aptazyme ON/OFF ratio
1,U7A G9C U10A U11G C13G,1.06
2,U7A U8A U10C U11A C12G C13G,1.24
3,U8C G9A U10C U11G C12A C13U,1.4
4,U7C U8C G9C U11C C12U C13A,1.05
5,U8C G9C U10G U11A C13A,1.13
6,U7C G9C C12G C13G,1.05
7,U7G U8A G9C U10A U11C C12U C13U,1.04
8,U7G G9C C12A C13A,1.42
9,U7G U8G G9U U10C U11G C12G C13A,1.16
10,U7G U8G G9C U10A U11G C12A,1.05
11,U7A U8G U10C U11A C13G,1.21
12,U7C U8G G9A U10C U11C C12U C13G,1.01
13,U8G G9U U10G U11G C12G C13G,1.17
14,U7C G9C U10A U11C C13G,1.03
15,U7C U8G G9A U10G C12G,1.34
16,U7G U8A G9A U10A U11A,1.45
17,U7C U8C G9C U10C U11C C12G C13U,1.1
18,U7A U8C G9A U10C U11A C12G C13U,1.09
19,U7C G9C U10G U11A C12U C13A,1.19
20,U7G G9U U11C C12U C13U,1.31
21,U7G U8A G9C U10A C12G C13U,1.03
22,U7C G9C U10G U11C C12A C13U,1.11
23,U7G U8A U10A U11A C12U C13G,1.29
24,U7A U10A C12U C13G,1.14

row,Variant,aptazyme ON/OFF ratio
1,U7A U8G G9C U10G C13A,1.52
2,U7A G9U U10C C12A C13G,1.14
3,U7A U8C G9A U11A C12G C13U,1.16
4,U8G G9A C12U C13U,1.25
5,U8C G9U U10G U11C C12G C13G,1.26
6,U7A U8C U10C U11A C12U C13G,1.19
7,U7G U8C G9U U11A C12U,2.56
8,U7C U8A U10A U11G C12U C13A,1.18
9,G9A U10A,3.05
10,U7A U8G G9C U10A U11C C12U C13A,1.26
11,U7G U8C G9A U11G C12U C13U,1.18
12,U7A U8A U10G C12A C13A,1.21
13,U7A U8A G9A U11C,1.03
14,U8A G9C U10C U11A C12A,1.06
15,U7A U8G G9C U10C C12G C13A,1.23
16,U8G U10C U11C C12U,1.17
17,U7A U8A G9U U10A C12U C13G,1.23
18,U7G U10A U11C C13U,1.02
19,U7C U8G G9U U11C C12U C13A,1.38
20,U7G U8A G9A U10C U11A C13U,1.12
21,U7A U8A G9U U11A C12A C13G,1.12
22,U7C U8A U10A U11A C12U C13G,1.35
23,U7C G9U U10A U11G C12G C13A,1.1
24,U8G U11G C12G C13U,1.2

row,Variant,aptazyme ON/OFF ratio
1,U8G G9U U10G U11A,1.09
2,U7A U8A G9C U10C U11G C12U C13A,1.02
3,U7G U8C G9C U10G U11A C12U C13A,1.03
4,U7C G9U U10G U11A C12U C13U,1.1
5,U7C U8C G9C U11A C12U C13A,1.06
6,U7G U8G G9U U10A U11C C12G,1.19
7,U7C U8C G9C U10C U11A C12G C13A,1.11
8,G9U U10G U11G C12A C13G,1.13
9,U7A U8C G9C U10C U11G C12U C13U,1.09
10,U7A U8G G9U U10A C12G,1.45
11,U7C U8A G9C U10G U11G C12U C13U,1.09
12,U7G U8G G9C U11A C12A,1.31
13,U8G G9A U11A C12U C13G,1.18
14,U7G U8A G9A U11C C12A,1.17
15,U7A G9C U10C U11A C12A C13G,1.06
16,U7G U8G U10G U11C C12U C13U,1.36
17,U7C G9A U10C U11C C12U C13U,1.07
18,U7A U8A G9C U10G U11G C12G C13U,1.21
19,U8A G9A U10G U11A C12A C13U,1.25
20,U8A U10C U11C C12U C13U,1.04
21,U8C G9U U11C C13U,1.01
22,U8C U10A U11A C12G C13A,1.15
23,U7A U8C G9U U11C C12A C13U,1.2
24,U7C G9U U10A U11C C13G,1.03

row,Variant,aptazyme ON/OFF ratio
1,U7G U8G G9C U11A C13G,1.04
2,G9U U11C C13A,1.22
3,U7A U8C U10A C12A,1.24
4,U7C C12G C13U,1.43
5,U7G U8G G9U U10G U11C C12U,1.04
6,U7G U8A G9U U10A U11C C12A C13G,1.02
7,U7G U8C G9C U10G U11G C13G,1.12
8,U7A U8C G9U U10G U11A C12G C13G,0.993
9,U7C U8C U11G C13G,1.28
10,G9C U10A U11A C12G,1.5
11,U7C G9A U11A C12U C13G,1.09
12,U7C U8A G9U U10C U11C C12U C13G,1.02
13,U7A U8C U11C C12U C13G,1.29
14,U8A G9U U10C C12A C13G,1.06
15,U7C U8A G9U U10A U11A C12U C13U,1.36
16,U7A G9U U10C C12U C13U,1.2
17,U7C G9C U10G U11A C12A C13U,1.4
18,G9U U10A C12A,1.21
19,U7A U8A G9U U10G U11A C12G C13A,1.18
20,U7C U8C G9U U10G C12U,1.33
21,U8G G9C U10A U11C C12U C13G,1.06
22,G9A U11A C12U,1.83
23,U7C U8A G9U U10G,1.26
24,U7G U8A G9C U10C U11G C13G,1.03

row,Variant,aptazyme ON/OFF ratio
1,U8G U10G U11A C12G C13U,1.34
2,U7G U8C G9U U10C,1.64
3,U7A U8G G9U U11C C12G C13G,1.32
4,U7G U8A G9A U10G C12U C13G,1.35
5,U7A U8G G9A U10A U11C C13G,1.04
6,U7A U8G G9A U11C C12U C13A,1.07
7,U7A U8A G9C U10C U11A C13A,1.14
8,U7C G9U U10A U11A C12A,1.2
9,U7C U8G G9A C12G,1.29
10,U8A U10G U11C C12G C13U,1.38
11,U7C G9A U10G U11A C13G,1.04
12,U7G U8C U10G U11C C12A C13U,1.33
13,U7A U8G G9C U10G C13U,1.17
14,U7A U8C U10C U11C C12A,1.14
15,U7C U8C G9U U10C U11C C12U C13U,1.08
16,U7C U8C U10G U11A C12U C13A,1.16
17,U8C G9A U10C C12A,1.35
18,U7C U8A U10C U11A C12U C13A,1.16
19,U7G U8G U11C C12G C13U,1.33
20,U7A U8G U10G U11C C12U C13G,1.11
21,U8G G9A U10A U11A,1.6
22,U7C U8C G9C U10G U11C C12U C13G,1.14
23,U7A U8G G9C U10G U11G C12U,1.2
